Reference: the supplement of paper PMC12855868

B1: library; numbered along this chain (parent)
chain: MAAAGGARLLRAASAVLGGPAGRWLHHAGSRAGSSGLLRNRGPGGSAEASRSLSVSARARSSSEDKITVHFINRDGETLTTKGKVGDSLLDVVVENNLDIDGFGACEGTLACSTCHLIFEDHIYEKLDAITDEENDMLDLAYGLTDRSRLGCQICLTKSMDNMTVRVPETVADARQSIDVGKTS

Variants of: B1
Test: scaled log2 fold change in cell abundance, elesclomol vs control (0 = silent mean, 1 = nonsense mean) (scaled log2 ratio); higher = higher viability under elesclomol (loss of FDX1 cuproptosis function)
Conditions: glucose 10 mM
Procedure: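 Deep mutational scan of full-length human FDX1: a pooled saturation-mutagenesis ORF library (every residue 2-184 mutated to all 19 amino acids plus stop, and silent codons where available) was expressed by lentivirus in FDX1-knockout ABC1 (14 days) or HEK293T (11 days) cells grown with elesclomol (ES) or DMSO control. Variant abundance came from ORF sequencing. The log2 fold change (ES vs control, mean of duplicates) was centred on the silent-variant mean (0) and scaled to the nonsense-variant mean (1). Higher values mean greater viability under ES, i.e. loss of FDX1 function in cuproptosis.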

[1] = with ABC1 FDX1 KO, elesclomol 5 nM, 14 days
[2] = with HEK293T FDX1 KO, elesclomol 40 nM, 11 days
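Note: variant abundance is its share of total variant reads in each endpoint sample, from next-generation sequencing of the integrated ORF PCR-amplified out of genomic DNA.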

With T183G the “scaled log2 fold change” value [1] was 0.353 and the “scaled log2 fold change” value [2] was -1.07.

With T131W the “scaled log2 fold change” value [1] was 0.374 and the “scaled log2 fold change” value [2] was -0.135.

With T131M the “scaled log2 fold change” value [1] was 0.154.

With S63F the “scaled log2 fold change” value [1] was 0.0355 and the “scaled log2 fold change” value [2] was -0.0458.

In the case of A13Y, the “scaled log2 fold change” value [1] is reported as -0.585 and the “scaled log2 fold change” value [2] is reported as 0.259.

With A13W the “scaled log2 fold change” value [1] was 0.54 and the “scaled log2 fold change” value [2] was -0.436.

With A32E the “scaled log2 fold change” value [1] was 0.295 and the “scaled log2 fold change” value [2] was -0.00588.

Q176Y was tested, and the “scaled log2 fold change” value [1] was 0.0438 and the “scaled log2 fold change” value [2] was 1.3.

With I72Y the “scaled log2 fold change” value [1] was -1.04 and the “scaled log2 fold change” value [2] was -0.583.

With I72D the “scaled log2 fold change” value [1] was 0.34 and the “scaled log2 fold change” value [2] was -0.132.

T157H was tested, and the “scaled log2 fold change” value [1] was -0.268 and the “scaled log2 fold change” value [2] was -0.000268.

In the case of A3V, the “scaled log2 fold change” value [1] is reported as 0.0935 and the “scaled log2 fold change” value [2] is reported as 0.00813.

In the case of S177N, the “scaled log2 fold change” value [1] is reported as 0.00267 and the “scaled log2 fold change” value [2] is reported as 0.0839.

With D101G the “scaled log2 fold change” value [1] was 0.085 and the “scaled log2 fold change” value [2] was -0.787.

For D101L, the “scaled log2 fold change” value [1] was -0.471 and the “scaled log2 fold change” value [2] was -0.161.

With G104H the “scaled log2 fold change” value [1] was 0.989 and the “scaled log2 fold change” value [2] was 0.725.

With G104M the “scaled log2 fold change” value [1] was 0.794 and the “scaled log2 fold change” value [2] was 0.449.

In the case of A174W, the “scaled log2 fold change” value [1] is reported as 0.23 and the “scaled log2 fold change” value [2] is reported as -0.353.

With A172V the “scaled log2 fold change” value [1] was 0.337 and the “scaled log2 fold change” value [2] was -0.531.

With N40V the “scaled log2 fold change” value [1] was 0.408 and the “scaled log2 fold change” value [2] was -0.147.

For I178F, the “scaled log2 fold change” value [1] was -0.214 and the “scaled log2 fold change” value [2] was 0.801.

In the case of L98C, the “scaled log2 fold change” value [1] is reported as -0.21 and the “scaled log2 fold change” value [2] is reported as -0.505.

With K82A the “scaled log2 fold change” value [1] was 0.109.

With L127H the “scaled log2 fold change” value [1] was 0.038 and the “scaled log2 fold change” value [2] was 0.312.

For L127F, the “scaled log2 fold change” value [1] was -0.388 and the “scaled log2 fold change” value [2] was -0.405.

For R166N, the “scaled log2 fold change” value [1] was -0.198 and the “scaled log2 fold change” value [2] was 0.918.

With C152F the “scaled log2 fold change” value [1] was 1.1 and the “scaled log2 fold change” value [2] was 2.08.

R147P was tested, and the “scaled log2 fold change” value [1] was 0.35 and the “scaled log2 fold change” value [2] was -0.0221.

In the case of S54Y, the “scaled log2 fold change” value [1] is reported as -0.0125 and the “scaled log2 fold change” value [2] is reported as -0.0955.

D121Y was tested, and the “scaled log2 fold change” value [1] was -0.243 and the “scaled log2 fold change” value [2] was 0.698.

For A15S, the “scaled log2 fold change” value [1] was 0.137 and the “scaled log2 fold change” value [2] was 0.0336.

For E125M, the “scaled log2 fold change” value [1] was 0.0258.

For E125L, the “scaled log2 fold change” value [1] was 0.17 and the “scaled log2 fold change” value [2] was 0.357.

In the case of I118N, the “scaled log2 fold change” value [1] is reported as 0.286 and the “scaled log2 fold change” value [2] is reported as -0.696.

In the case of G5Y, the “scaled log2 fold change” value [1] is reported as -0.325 and the “scaled log2 fold change” value [2] is reported as 0.00599.

With G5A the “scaled log2 fold change” value [1] was -0.65 and the “scaled log2 fold change” value [2] was 0.164.

For E133D, the “scaled log2 fold change” value [1] was 0.319 and the “scaled log2 fold change” value [2] was 0.453.

In the case of L79S, the “scaled log2 fold change” value [1] is reported as 0.0141.

In the case of R58L, the “scaled log2 fold change” value [1] is reported as -0.211 and the “scaled log2 fold change” value [2] is reported as 0.174.

G45D was tested, and the “scaled log2 fold change” value [1] was -0.348 and the “scaled log2 fold change” value [2] was 0.907.

V16L was tested, and the “scaled log2 fold change” value [1] was 0.316 and the “scaled log2 fold change” value [2] was -0.316.

In the case of Y142R, the “scaled log2 fold change” value [1] is reported as 0.172 and the “scaled log2 fold change” value [2] is reported as -1.11.

With G102C the “scaled log2 fold change” value [1] was 0.0125 and the “scaled log2 fold change” value [2] was 0.0278.

G102T was tested, and the “scaled log2 fold change” value [1] was -0.0667 and the “scaled log2 fold change” value [2] was 2.33.

In the case of L140P, the “scaled log2 fold change” value [1] is reported as 0.264 and the “scaled log2 fold change” value [2] is reported as 0.879.

With E48K the “scaled log2 fold change” value [1] was 0.46 and the “scaled log2 fold change” value [2] was 0.746.

In the case of G143I, the “scaled log2 fold change” value [1] is reported as -0.102 and the “scaled log2 fold change” value [2] is reported as -0.507.

With F119G the “scaled log2 fold change” value [1] was 1.05 and the “scaled log2 fold change” value [2] was 0.397.

In the case of F119A, the “scaled log2 fold change” value [1] is reported as 0.901 and the “scaled log2 fold change” value [2] is reported as 0.518.

With A49Q the “scaled log2 fold change” value [1] was 0.504 and the “scaled log2 fold change” value [2] was 0.944.

In the case of D99A, the “scaled log2 fold change” value [1] is reported as 0.0591 and the “scaled log2 fold change” value [2] is reported as -1.37.

With N97V the “scaled log2 fold change” value [1] was -0.176 and the “scaled log2 fold change” value [2] was -0.221.

In the case of R149T, the “scaled log2 fold change” value [1] is reported as 1.01 and the “scaled log2 fold change” value [2] is reported as 0.998.

For D161I, the “scaled log2 fold change” value [1] was 0.0246 and the “scaled log2 fold change” value [2] was -0.332.

With I130M the “scaled log2 fold change” value [1] was 0.336 and the “scaled log2 fold change” value [2] was -0.481.

I130S was tested, and the “scaled log2 fold change” value [1] was 0.236 and the “scaled log2 fold change” value [2] was 0.715.

M160N was tested, and the “scaled log2 fold change” value [1] was 0.245 and the “scaled log2 fold change” value [2] was -0.0466.

In the case of M160Q, the “scaled log2 fold change” value [1] is reported as 0.0622 and the “scaled log2 fold change” value [2] is reported as 0.682.

In the case of M137H, the “scaled log2 fold change” value [1] is reported as 0.073 and the “scaled log2 fold change” value [2] is reported as -0.384.
